# ± gives the uncertainty stated by the source.
# Assay: amyloid nucleation score (Sup35N fusion, yeast selection) (log enrichment); library NNK3; higher = more nucleation; inactive = no reads after selection
# Outline: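 The nucleation score equals the log enrichment of output over input reads from DiMSum, centred on the mode score of non-aggregating sequences. It was computed only for sequences with 100 or more input reads. The reads came from Illumina sequencing of plasmid inserts from psi-negative yeast expressing Sup35N fused to peptides of 20 random codons, induced with 100 μM copper sulfate for 24 hours and grown 7 days at 30°C without adenine and uracil.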
row,Substance,amyloid nucleation score
1,MLHASV,inactive
2,VPNLEVSLKAFSSIVSFVRG,inactive
3,VLPCVMYNIHPQITCRR,inactive
4,LINSNVNTVSLFIPFSRMED,1.58 ± 0.1
5,PALMDLGYRYVSRNFDL,inactive
6,TGDRIWTIGFFGEPNGVLKG,inactive
7,VYMLYQFSCPGVDNWVCTES,inactive
8,DSKMLCCCCWPVRN,1.42 ± 0.12
9,HILSCSQVFG,0.025 ± 0.6
10,CVLKMLNNHHAHFILNGCRT,inactive
11,TADIESMIMFNGRVPGHLSV,inactive
12,YTWDVGHLKNSSSVYWKLLR,inactive
13,KICSIVPLYIRGGHSLGSVV,inactive
14,FTNKNCFIGAVTRCEVRVWG,inactive
15,SIWWYNLVVI,inactive
16,VLCHQCWCRKIWPMN,inactive
17,CYWEPRSWISCRRPILRMSV,inactive
18,CLKGNFIVNSNVFKCVLWYS,inactive
19,NLMGQTSGCQCVNTACLKPC,inactive
20,SGLWW,inactive
21,LSTNTKSKTPYNVRMSLTGG,0.49 ± 0.34
22,FYHVTGLFT,inactive
23,LYLAMRENMWFEPEVNGCYG,inactive
24,GLVHCNGSPAQITFKDTFNR,inactive

row,Substance,amyloid nucleation score
1,CRWEVCVVLFLMNCDKNGSC,inactive
2,IQSYK,inactive
3,DWTGNMGDNHSTRVFRRKRD,inactive
4,AGSIGPVRSRGIMLTRLEV,-0.42 ± 1.8
5,FDDVGSNSLHCIMMHELLGV,inactive
6,WSLCGDVRTQHINHVSVQVS,inactive
7,LERVSVSTQYLRLHLDLNSF,inactive
8,VNVDLPLARNHWYPSPIYMV,-0.654 ± 0.84
9,IRLLATF,inactive
10,YLDNVFNGPAFLYSGSRDR,1.02 ± 0.18
11,NLSLFWMWELGKFYHGDRTA,2.23 ± 0.066
12,YKANFMGFSIYKRVGTRVWQ,0.15 ± 0.75
13,GMRRFHNVRINVVSRWWFLE,0.545 ± 0.28
14,MILFC,inactive
15,SSFEFVE,0.698 ± 0.22
16,FGNFPSCE,inactive
17,DTWRMFWPLVVLNCADGAPG,inactive
18,CLFSLPWWCSMM,inactive
19,TPMGQCAYHEPVNMVKKALR,inactive
20,TMLRFIYSYDAFRR,0.931 ± 0.22
21,LLVLKYVMSRTWWSWGA,inactive
22,EVCFIRLLLLYCR,inactive
23,GSYSNAHTPQF,0.695 ± 0.2
24,PTAESPLMPFNA,-0.478 ± 0.69

row,Substance,amyloid nucleation score
1,RLSWSQPVLNVSTCEGVN,inactive
2,DLQLRNWCLWVSWWN,inactive
3,EMCSA,inactive
4,YIKRTIFTYYYRERMIADSY,inactive
5,SVSNPRNRT,inactive
6,SWVGTG,-0.331 ± 0.84
7,RDTYQSSCDWQW,0.077 ± 0.87
8,KYRPLKSCAHVMRDSIKSGC,inactive
9,VFNLLYVGFHVDSIGVGCVI,1.97 ± 0.096
10,CLGAGLRSGSAARLYEFGQV,inactive
11,LWHVF,inactive
12,DLNDGWGWKRLTFQSVRCGE,inactive
13,CFLRWNRFL,0.106 ± 1.1
14,RCSDYHMR,inactive
15,ISRFCYSSINRRGFLGNFVF,inactive
16,GHTRDFKGSFDFPLNFY,inactive
17,SSMGVVSVRAN,inactive
18,QTMDTYLWLAR,-0.083 ± 1.1
19,GDVNCLNTVTLKNNKTRGHI,inactive
20,TWINFFGTYILWPNFNYSTR,2.66 ± 0.064
21,PVLPQGLRVLYDSVSVTSHL,inactive
22,LFKMPCLILVWPDSMFATSL,inactive
23,YRQRWSRLCAGQSLYNCGKC,inactive
24,YYSGCVLIRRILYLGRVGSP,inactive

row,Substance,amyloid nucleation score
1,LNYEIWNISRFRTFFTGVSA,-0.332 ± 0.73
2,TLFDRFWVLWNEKWESSGKY,inactive
3,CCVGYFYGLEV,2.06 ± 0.064
4,KCMCNLRSMFASCLYTCVVI,inactive
5,MNEGLYS,inactive
6,GSICFNPTVWLVSRYRCS,1.19 ± 0.12
7,ELNIN,inactive
8,LIFCNATGFTYRWPLTWVVM,inactive
9,QKHISY,inactive
10,WILFCKNGAVTNLLVWECLC,inactive
11,SRMPCRFM,inactive
12,SKWAYIAFGVFVLLFALFNK,-0.161 ± 0.27
13,FNPKSWKVTKLYFKMYNRLD,inactive
14,GPRMCMQLRS,inactive
15,VVEIMDLS,inactive
16,YYSMTKNARCGHSFEAKSLF,inactive
17,CASSWLF,inactive
18,DGILTVCYEVVNWNSSSVLL,inactive
19,YRYLVFLRLNLSLRILFGFK,inactive
20,ELYVMLGDGAFVRAIKDYVS,inactive
21,LKMSLPYNMMVIILKRGGAY,inactive
22,SWASQWLFTPLSTVRSYIIL,inactive
23,ASILRTKMLVCKGGKILQLQ,inactive
24,TYFTFSREVKMMVHTNCCLL,0.594 ± 0.2

row,Substance,amyloid nucleation score
1,CGFDMY,1.84 ± 0.094
2,YMRAIHRCCAYLVRGLGSGT,inactive
3,LQVHILFMAIKYFSMAVV,inactive
4,GSVTGAFERYVKKEA,inactive
5,LFFCNCCYGICS,2.4 ± 0.079
6,NYKRTLEESN,1.17 ± 0.18
7,EAYEAQD,inactive
8,NMFRARGCSDFFLACMNDSA,inactive
9,ANFQWE,inactive
10,EGTKEF,inactive
11,LYLTSCDIYGAGTIGRWVAV,inactive
12,LFFSNT,inactive
13,YIGIHLTSFRSTSSYYDRVL,inactive
14,MWICVILGSQIWSRWETMNG,inactive
15,RTKKY,inactive
16,FIVVVLLCFG,inactive
17,TRRATGYFHFS,inactive
18,SEYMNLYTVTTHRTPS,inactive
19,VNTATCYQ,inactive
20,NRNYVGPWTLKMGLVC,inactive
21,TNTSFTIVSYTSYR,0.696 ± 0.27
22,RYYGSFVEPRSFSRN,inactive
23,YCLRSSTGSEVRQWDDDSFK,inactive
24,DMIKCGLSPDRVFIWYWPNK,inactive

row,Substance,amyloid nucleation score
1,HNCPFFSTDMKCSKNIHIFG,1.78 ± 0.077
2,QLCPHYFCKNKNATYGLTSR,inactive
3,CFAFGW,inactive
4,FPSIYLMSD,inactive
5,GGAVMMALWGGLS,inactive
6,YASSCDVKLMQSSPLAYEVD,inactive
7,MVCISL,inactive
8,LNELHMFSGPAYLFSVFRDM,inactive
9,MQSAVNVV,inactive
10,RGSKQLDWHSYYNRVLDIGR,-0.296 ± 0.88
11,TRSWCGDMYSHC,inactive
12,MSSQCWRQIGWDTCARS,inactive
13,GVWRLATHGYSQ,inactive
14,MIFLLTSIL,inactive
15,SFIIYCPVKKPQIVFHRLPS,2.36 ± 0.056
16,HATGSMNVSVSAGVRQQILR,inactive
17,GLEAPTCPEVFNIGIFSYYH,1.45 ± 0.068
18,LDDEVEQSTAASDIRLLSTL,inactive
19,SVIILYRCSFRGWRSHASGN,1.05 ± 0.1
20,DHHQIFYVWSLPMA,inactive
21,DFFLDYL,inactive
22,PTNFD,inactive
23,QYICTLTCSYFLGSMTIEHK,-0.022 ± 0.66
24,MPIRCSTSLHWTTTMWMTVW,inactive

row,Substance,amyloid nucleation score
1,MTVWNSWNINIVWVMFLSA,inactive
2,IPLYHSWSVASLRLRNVVSW,inactive
3,RPFLSMS,inactive
4,VYSGESNQIYIMNWPVTSKQ,0.062 ± 0.59
5,NAFDFSL,inactive
6,FASIRSRTRDRVSYVTPSFL,inactive
7,RWIFLITILGVLNT,inactive
8,LGNSFLE,-0.445 ± 0.84
9,YSATGIPSCWRLNFVENLRT,inactive
10,SKGLCPVWIVLYKACHSMIF,inactive
11,PQLCESLELSEKRRTEDLVG,inactive
12,GRRYVLEENSVIISWCVIYY,inactive
13,VEYLFVNCWSTE,inactive
14,SSLLSEWNGGKSYNSVVDEV,inactive
15,RQYRSLRFSVLVYPSHISKG,0.544 ± 0.17
16,SNIRVKFHTPSIGMRCLRTR,inactive
17,DEGKSNPPF,inactive
18,IATIVCYRLDGYHVLSYAHT,inactive
19,ANYFTPTNCSVRLRWISDPT,inactive

# Source: the supplement of paper PMC12042874
